Positions count from the first letter of the chain named.
B1: aNRP2-408v2 (antibody, V domains shown)
VH: EVKLVESGGGLVKPGGSLKLSCAASGFTFSSYAMSWVRQTPEKRLEWVASISRGSITYYPDSVKGRFTISRDNAGNILYLQMSSLRSEDTAMYYCAREYYYAMDYWGQGTSVTVSS
VL: DIQMTQSPSSLSASLGERVSLTCRASQDIGSRLNWLQQEPDGTIKRLIYATSSLDSGVPKRFSGSRSGSDYSLTISSLESEDFVDYYCLQYASSPYTFGGGTKLEIK
B2: aNRP2-409v3 (antibody, V domains shown)
VH: EVQFVETGGGLVQPKGSLKLSCAASGFTFNTNAMNWVRQAPGKGLEWVARIRTKSNNYATYYADSVKDRFTISRDDSQNILYLQMNNLKTEDTAMYYCVTLDSSGYVWFAYWGQGTLVTVSA
VL: B1 VL
B3: aNRP2-400v2 (antibody, V domains shown)
VH: EVQLQESGAELARPGASVKLSCKASGYTFRSYGISWVKQRTGQGLEWIGEIYPRSGNTYYDENFKGRATLTADKSSSTAFMELRSLTSEDSAVYFCARSSITAVVAIPYYYAMDYWGQGTSVTVSS
VL: DIQMTQTTSSLSASLGDRVTISCSASQGISNYLNWYQQKPDGSVKLLIYYTSSLHSGVPSRFSGSGSGTDYSLTISNLEPEDIATYYCQQYSKLPHTFGGGTKLELK
B4: aNRP2-405v2 (antibody, V domains shown)
VH: EVMLVESGGGLVKPGGSLKLSCAASGFTFRRYAMSWVRQTPEKGLEWVATITSGGSYTYYLDSVKGRITISRDNAKNTLYLQMSSLRSEDTAMYYCARHGIYGGFDYWGQGTTLTVSS
VL: DVLMTQTPLSLPVSLGDQASISCRSSQSIVHSDGNTYLEWYLQKPGQSPNLLIYKVSNRFSGVPDRFSGSGSGTDFTLKISRVEAEDLGIYYCFQGSHVPFTFGSGTKLEIK
B5: aNRP2-37v2 (antibody, V domains shown)
VH: DVKLVESGEGLVKPGGSLKLSCAASGFTFSDYALSWVRQTPEKRLEWVAYISSGGDYIYYADTVRGRFTISRDNARNTLYLQMSSLQSEDTAIYYCTRGGQDDYWGQGTTLTVSS
VL: DVVMTQTPLSLPVILGDQASISCRSSQSLVHSNGNTYLQWYLQKPGQSPKLLIYKVSNRFSGVPDRFSGSGSGTDFTLKISRVEAEDLGVYFCSQSTHVPFTFGSGTNLEIK
B6: aNRP2-403v2 (antibody, V domains shown)
VH: QVQLQQPGAELVKPGASVKLSCKASGYTFTSYWMHWVKQRPGRGLEWIGRIDPNSGDTKYNEKFKSKATLTVDKPSSTAYMQVSSLTSEDSAVYYCARSYDYALEYWGQGTSVTVSS
VL: B5 VL with I14S, Q39H, Y41F, K50N, S96N, H98R, F101R, S105G, N108K
B7: aNRP2-407v2 (antibody, V domains shown)
VH: EVQLQQSGPELVKPGASVTISCKASGYSFTGYYMHWVKQSHVKSLEWIGRINPYNGATSYSQNFKDKASLTIDKSSSTAYMELHSLTSEDSAVYYCAREETTAPFTYWGQGTLVTVSA
VL: DIVMSQSPSSLAVSVGEKVTMSCKSSQSLLYSSNQKNYLAWYQQKPGQSPKLLIYWASTRESGVPDRFTGSGSGTDFTLTISSVQAEDLAVYFCQHYYSYPPTFGGGTKLEIK
B8: aNRP2-401v2 (antibody, V domains shown)
VH: EVQLQESGGGLVKPGGSLKLSCAASGFTFSDYGMHWVRQAPEKGLEWVATISRDINTVYYADTVKGRFTISRDNAKNTLFLQVTSLRSEDTAMYYCTRGGYTDYWGQGTTLTVSS
VL: DIVMTQTPLSLPVSLGDQASISCRSSQSLVHSNGNTYLYWYLQRPGQSPKLLIYKVSNRFSGVPDRFSGSGSGTDFTLKISRVEAEDLGVYFCSQSTHVLTFGGGTKLEIK
B9: aNRP2-401v5 (antibody, V domains shown)
VH: EVQLVESGGGLVQPGGSLRLSCAASGFTFSDYGMHWVRQAPGKGLEWVSTISRDINTVYYADTVKGRFTISRDNAKNSLYLQMNSLRAEDTAVYYCARGGYTDYWGQGTTVTVSS
VL: B8 VL with P12S, S14T, L15P, D17Q, Q18P, R44K, K50Q, L88V, F92Y, L108V
B10: aNRP2-401v7 (antibody, V domains shown)
VH: B9 VH with D54S
VL: DIVMTQTPLSLSVTPGQPASISCRSSQSLVHSNGNTYLYWYLQKPGQSPQLLIYKVSNRFSGVPDRFSGSGSGTDFTLKISRVEAEDVGVYYCAQSTHPLTFGGGTKVEIK
B11: aNRP2-401v6 (antibody, V domains shown)
VH: B9 VH
VL: B10 VL
B12: aNRP2-401v8 (antibody, V domains shown)
VH: B9 VH with N56Q
VL: B10 VL

target: recombinant NRP2 isoform a (human) (UniProt O60462); assay: BLI, antibody captured by anti-mouse kappa, NRP2a titrated 0.62-450 nM, 1:1 fit

Row | Kd [nM] | Binder
1 | 2.1 | B1
2 | 2.23 | B2
3 | 0.453 | B3
4 | 0.48 | B4
5 | 0.767 | B5
6 | 1.4 | B6
7 | 0.352 | B7
8 | 0.136 | B8

target: recombinant NRP2 isoform a (human) (UniProt O60462); assay: BLI (Octet RED96e)

Row | Kd [nM] | koff [s⁻¹] | kon [M⁻¹ s⁻¹] | Binder
9 | 0.391 | 0.000293 | 748000 | B9
10 | 0.141 | 0.000173 | 1.23e+06 | B10
11 | 0.162 | 0.000162 | 999000 | B11
12 | 0.0989 | 0.00012 | 1.21e+06 | B12
